This series deals with the molecule itself. Nature of the series: SEC; Sephacryl S-300HR 2.6 x 100 cm, 25 mM Tris-HCl pH 7.5 at 4 °C, 50 mM NaCl, 1 mM DTT; dimer between elution volumes 212 and 250 ml. (In general: In gel filtration, larger molecules generally elute earlier.)

B1: recombinant full-length four-module Xenopus interphotoreceptor retinoid-binding protein (natural protein)
chain: not shown
notes: begins FQPSL; also called xIRBP; Xenopus IRBP; source: E. coli Top10, thioredoxin fusion cleaved with enterokinase, purified (HisTrap twice, Sephacryl S-300HR); not shown: thioredoxin with His-patch, N-terminal, cleaved
In the case of B1, the “stoichiometry N” value came to 2.

In general, stoichiometry N refers to the number of molecules, sites or subunits per partner or assembly.
